Results from the supplement of paper PMC12764529.
± gives the half width of the 95% confidence interval.

Assays:
[1] = folding stability dG unfold from trypsin proteolysis; higher = more stable
In short: (§1)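 Designed mini-proteins with no cysteine and under 80 residues were kept only if AlphaFold2 dimer inter-PAE was above 15. In a PA-tagged cDNA display construct, they were digested with trypsin and chymotrypsin and then sequenced. K50 was inferred by Bayesian fitting of counts, and unfolding free energy was derived per protease or combined against a sequence-predicted unfolded-state K50 and a shared folded-state K50.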

[2] = folding stability dG unfold (combined trypsin and chymotrypsin); higher = more stable
In short: as §1

[3] = folding stability dG unfold from chymotrypsin proteolysis; higher = more stable
In short: as §1

| Sequence | folding stability dG unfold [1] [kcal/mol] | folding stability dG unfold [2] [kcal/mol] | folding stability dG unfold [3] [kcal/mol] |
| --- | --- | --- | --- |
| SAGEEIERLLKEIEEAVRKAYPDKVVKVDLVKVELRPVLVVDPGTPRIEERTEIFLEVKVTVTHPDELSAGG [r19_293_TrMRF] | 2.22 ± 0.098 | 2.63 ± 0.087 | 2.77 ± 0.08 |
| SAGEELIKKLAEELNLEVEIVSVEVDEETPTITVEVRVRNKDGEELTVRITITYDKETDEVHIEVEVLPSAG [r5_929_TrROS_Hall] | 3.91 ± 0.14 | 4.08 ± 0.2 | 3.99 ± 0.26 |
| SAGEEVYLITVRIIDPETNEVKEITKLIKNKTEDEILEELRKLLEELGIELPEGAKVEITITKIKPPPESAG [r5_230_TrROS_Hall] | 3.53 ± 0.52 | 4.26 ± 0.82 | 4.07 ± 0.44 |
| SAGEFKIDILPGDNVARITSPEGSFLAPFTATFTFDVPDIADPNKIKPKPVVFNLVIEMKLDDFFDLLSSAG [r5_234_TrMRF] | 2.49 ± 0.1 | 3.36 ± 0.15 | 4.17 ± 0.17 |
| SAGEIAEKLGFKVEDVSIQKEDGTYRIVVRFPMDDRPVVIMGDIKVEEKNGKRKIEIDIDIMPLPPDDPSAG [r5_516_TrROS] | 1.89 ± 0.03 | 1.7 ± 0.086 | 1.57 ± 0.054 |
| SAGEKEYVNLPLVVKLPPGVPASLILDAAVKHGAKEVTIVEEPTPDGGMVLHINLVLPKEALPKLLESLSAG [r5_376_TrMRF] | 4.39 ± 0.21 | 4.79 ± 0.3 | 4.61 ± 0.17 |
| SAGEKFEPVEEKELTLKITLKDKDGNEKEVEIKVKVEVVKNPDGTLTVRAEITFEDGTKIELELEIKLPSAG [r5_57_TrROS_Hall] | 3.27 ± 0.16 | 3.11 ± 0.33 | 3.19 ± 0.23 |
| SAGEKKKVVIVVHIHIEAESEEDREKALEEARKLAEELARELKEKLGLPEDVKEVVVIVHIHPRSEEEKSAG [r5_436_TrROS_Hall] | 2.01 ± 0.086 | 2.25 ± 0.12 | 2.42 ± 0.083 |
| SAGEKTVKIKLPNTKTITVKVKKNEKKILYLPNGEKILITDVKKGKVSLKKGITYVKDKNGKWYPLKYKSAG [r5_417_TrMRF] | 0.332 ± 0.15 | 1.37 ± 0.1 | 1.86 ± 0.079 |
| SAGELELELELEFELEDGYRVEVRLRLRVRPDGSVRMELEVRIEPLPPPPPVRVVVVREDDPEALRALSAGG [r19_12_TrROS_Hall] | 2.73 ± 0.1 | 3.6 ± 0.61 | 4.49 ± 0.19 |
| SAGELTAEEIAERLRKLLEELGIEEVEVEVEEVEVEEEEEPVEEEEEEELSEEERERLRRERLEEEGLLSAG [r5_9_TrROS_Hall] | 1.59 ± 0.073 | 1.92 ± 0.12 | 2.1 ± 0.037 |
| SAGEPDKPFTLTLKLLLPQSEDGTPLTPEEAEELAKEISTELGVEVEEIKITSNPEGNFVEIEVKLRGSAGG [r19_322_TrMRF] | 2.02 ± 0.031 | 2.4 ± 0.059 | 2.568 ± 0.015 |
| SAGEPLGPEKAKELAEELVERVAREIAERLGLAPEEVEVVSVELTPDGRLVLTLRVPEREFTFVFPVEGSAG [r5_565_TrMRF] | 3.36 ± 0.078 | 4.62 ± 0.054 | 4.89 ± 0.054 |
| SAGERKVLVIENLTSEELIEAIREALEKSPPGLLILVPDPEKAEEIRRAFPGIPLVVLNRETGELVEVESAG [r5_391_TrMRF] | 3 ± 0.12 | 3.33 ± 0.099 | 3.46 ± 0.044 |
| SAGEVKIEISVEKVGGKYIVRIKVTVDGKEYEYEFPAGKSVEELAKELEKKLNLKVKKIEVEVRKLPPKSAG [r5_181_TrROS_Hall] | 2.88 ± 0.11 | 3.28 ± 0.25 | 3.47 ± 0.12 |
| SAGEVKIEVEGLPDKTVIRITIPYTAPGVGPSALLAVLKELGLPPETKLLKVEFYEEPKTVEALVVQGSAGG [r19_186_TrMRF] | 1.13 ± 0.088 | 1.63 ± 0.11 | 1.72 ± 0.16 |
| SAGEYVLVEVERGGKVETFVLPPELAKELLEKYSPDSEIPVKLEGREVRLRVLPIKPKEPTPEELAKAASAG [r5_669_TrMRF] | 0.306 ± 0.085 | 1.41 ± 0.16 | 1.85 ± 0.14 |
| SAGFEARVLEVVDLGDRRVALFELRDPEEGRYLLAVAVYDPETGLARVELWDPTDGRLVATPVVPVLPLSAG [r5_440_TrMRF] | 1.72 ± 0.027 | 2.12 ± 0.066 | 2.36 ± 0.047 |

| Sequence | folding stability dG unfold [1] [kcal/mol] | folding stability dG unfold [2] [kcal/mol] | folding stability dG unfold [3] [kcal/mol] |
| --- | --- | --- | --- |
| SAGFKIKIEPIEVLPNGTVKYKAIIETEKEKYEVEAFYNPKTGLIYIYSPKTGSIMKINPKTGKIILIPSAG [r14_260_TrMRF] | 3.44 ± 0.15 | 4.03 ± 0.2 | 4.18 ± 0.11 |
| SAGFSIVEVEPDEDTYTITIEYTLPNGTVKTKDLPLKAKNPVLLEISENEITIYLPDTNEVVTLPVSLISAG [r14_947_JUSTAS] | 1.92 ± 0.087 | 1.87 ± 0.29 | 1.74 ± 0.16 |
| SAGFYFRITEITVNPDAGKLTIRNPNGQEQEIPPGGKISIKMRFYRFNDNGGKPETFEMEHTIPIPPGDSAG [r14_366_TrROS] | 2.62 ± 0.042 | 3.15 ± 0.12 | 3.43 ± 0.085 |
| SAGGAEEARKAGRPVLLTVTVTAPGSGKVSTLPLLVPADRPVDVEALVAALFPADWAVTVSVSPVGGSAGGS [r8_127_JUSTAS] | 1.32 ± 0.028 | 1.27 ± 0.11 | 1.37 ± 0.051 |
| SAGGAEELAKRLAEELREAGYEVEVVKVERLENGEVVITMKVRVVKDGKEVEEREIKLVLKLPEELLSAGGS [r8_102_TrROS_Hall] | 3.93 ± 0.097 | 3.98 ± 0.086 | 4.03 ± 0.069 |
| SAGGAEIKITSIEYNPETKTITAKVEITVDGKKFTFTITIKLKAAPAPPTVTVTDKDIPGKTVTLTKTSAGG [r13_615_TrROS_Hall] | 1.51 ± 0.14 | 2.1 ± 0.24 | 2.38 ± 0.13 |
| SAGGAFPPGEKVEVRIEVVELPGEGTYLLRAYLPGGKLLWERPFPEGELEAFAEEFRSLGFDTVEVTPSAGG [r13_765_TrMRF] | 2.512 ± 0.021 | 2.69 ± 0.035 | 2.736 ± 0.0075 |
| SAGGAGDQPVVIVATGSDGSPRVFPFKTKEPFKVTVNFPDEKRVFTVPADEPFVFDAPDGDILLDASSAGGS [r16_456_TrMRF] | -0.23 ± 0.11 | 0.394 ± 0.095 | 0.697 ± 0.12 |
| SAGGAITLEYEVETEEEAEKAIEELEKELKEKFGGPVKIEKATIEKTEDPSVPREKYRLKLTIEINKSAGGS [r8_171_JUSTAS] | 0.198 ± 0.13 | 0.858 ± 0.28 | 1.08 ± 0.11 |
| SAGGAKIKFDIEPTNNTIRVKIEIWLPGGPVEIVEEEPVRVDPNGGIWISFRIRYPDGKPQEFQIPISAGGS [r8_449_TrROS] | 2.62 ± 0.057 | 2.88 ± 0.14 | 3.08 ± 0.07 |
| SAGGAKITVDDNKITIELPLPNGKPAGSINEPLPDGSSRILVKFPDFVLHLEITPEGIKIASIDNNKDSAGG [r13_619_TrMRF] | 1.27 ± 0.068 | 1.51 ± 0.22 | 1.77 ± 0.064 |
| SAGGALKELPDGSVELYYNTETGLFTVRVRHPDKPPLVFTVESPEDALKFAKALEEKGIKIDKVVPAPSAGG [r13_727_TrMRF] | 2.1 ± 0.068 | 2.02 ± 0.14 | 1.86 ± 0.065 |
| SAGGAMVPVNFTLKFTYTNPDGTPVFREKPVTLPFPESDPAAAEAAARARAEAEAAARGVEVDLEVSLSAGG [r13_853_JUSTAS] | 0.0284 ± 0.12 | 0.193 ± 0.11 | 0.219 ± 0.22 |
| SAGGANIHVRMENPGDGKPMSFMIPVKEVREAKQEGKDEIKIPFGGGPMKVEIEPLPDGWVHIRMRMPSAGG [r13_171_TrROS] | 0.417 ± 0.27 | 0.201 ± 0.26 | -0.0135 ± 0.4 |
| SAGGAPGVPSVTVIPFDPSTGRALALVVDGDRVYVISSAVPLEVLRELGVDRVEPLPDGTLVAVSLASAGGS [r8_382_TrMRF] | 1.13 ± 0.02 | 1.38 ± 0.041 | 1.49 ± 0.027 |
| SAGGAPLVPVSTETYTVKDSKGNEVTITIETLPDGSYRITITYPNGEVKEYEFPSKEEAEKLEITVNPSAGG [r13_109_JUSTAS] | 3.63 ± 0.23 | 3.62 ± 0.14 | 3.66 ± 0.1 |
| SAGGAPNWKIEKIEIEYPGRKIEVWRHDNMWFIHIPAPPGYPIRIKIKIEPDNGETQTQERTFPIPPPSAGG [r13_191_TrROS] | 1.75 ± 0.061 | 2.37 ± 0.35 | 2.83 ± 0.073 |
| SAGGAPSSSPIPIDLGDPNDEEKLKAEVEAIEKEYAAKGVTPITVERVGENKYRIKIPTGGVATVALSAGGS [r16_703_JUSTAS] | -0.55 ± 0.11 | -0.169 ± 0.12 | -0.0876 ± 0.12 |
